Measured values published in PMC7386315.

What was measured:
[1] = tested on: AtCdc5-DBD (Arabidopsis thaliana); test: BLI
[2] = tested on: MoCdc5-DBD (Magnaporthe oryzae P131); test: BLI

Substance	Kd [1]	Kd [2]
MIR167a	8.98 10^-8 M	5.17 10^-8 M
U6 RNA		1.38 10^-8 M
